This test concerns E. coli. The test can be described thus: Chloramphenicol resistance conferred by the synthetase (amber suppression in the CAT gene). Type of test: cell-based. The procedure:
Following mutagenesis, the pool of synthetases was then passed through positive and negative rounds of selection. The positive selection is based on suppression of an amber stop codon at a permissive site (Asp112) in the chloramphenicol acetyltransferase (CAT) gene. When E. coli cells harboring the MjTyrRS mutant library, the mutated CAT gene and a coexpressed Mj amber suppressor tRNACUA were grown on minimal media in the presence of pPRO-Phe (1 mM) and chloramphenicol (80 μg/mL), the only surviving cells are those cells that contain a mutant synthetase that aminoacylates the tRNACUA with either an endogenous amino acid or pPRO-Phe. The synthetase library genes were then transformed into cells containing a mutated gene encoding the toxic protein barnase, which has three amber mutations at permissive sites (Gln2, Asp44, Gly65). The vector carrying the barnase reporter also contained the suppressor tRNA. Growth of these cells in the absence of pPRO-Phe selected against synthetases capable of accepting endogenous amino acids as a substrate. After three rounds of selection, 96 clones were screened for growth rate dependence on the presence or absence of pPRO-Phe, and eight candidate clones were identified and sequenced. The polynucleotide and amino acid sequences of the eight clones is also provided in SEQ ID NOS: 4 through 19. […]

B1: pPRO-PheRS-1: para-propargyloxyphenylalanine aminoacyl-tRNA synthetase isolate-1, derived from wild-type Methanococcus jannaschii tyrosyl tRNA-synthetase (protein)
chain: MDEFEMIKRNTSEIISEEELREVLKKDEKSAAIGFEPSGKIHLGHYLQIKKMIDLQNAGFDIIILLADLHAYLNQKGELDEIRKIGDYNKKVFEAMGLKAKYVYGSPFQFDKDYTLNVYRLALKTTLKRARRSMELIAREDENPKVAEVIYPIMQVNAIHYAGVDVAVGGMEQRKIHMLARELLPKKVVCIHNPVLTGLDGEGKMSSSKGNFIAVDDSPEEIRAKIKKAYCPAGVVEGNPIMEIAKYFLEYPLTIKRPEKFGGDLTVNSYEELESLFKNKELHPMDLKNAVAEELIKILEPIRKRL
modifications: para-propargyloxyphenylalanine aminoacyl-tRNA synthetase derived from M. jannaschii tyrosyl tRNA-synthetase
notes: para-propargyloxyphenylalanine aminoacyl-tRNA synthetase isolate-1, derived from wild-type Methanococcus jannaschii tyrosyl tRNA-synthetase
Take B1: the “chloramphenicol resistance on E. coli, IC50” value by setting is: (in the absence of pPRO-Phe) 5 µg/mL; (in the presence of pPRO-Phe) 110 µg/mL.

Source of the values: patent US7718410B2, “In vivo incorporation of alkynyl amino acids into proteins in eubacteria” (The Scripps Research Institute, priority 2004, dated 2010).
